Measurements reported in US20120114665A1.

Molecular target: T1, penta-his-tagged hRANKL (human)
T1 sequence: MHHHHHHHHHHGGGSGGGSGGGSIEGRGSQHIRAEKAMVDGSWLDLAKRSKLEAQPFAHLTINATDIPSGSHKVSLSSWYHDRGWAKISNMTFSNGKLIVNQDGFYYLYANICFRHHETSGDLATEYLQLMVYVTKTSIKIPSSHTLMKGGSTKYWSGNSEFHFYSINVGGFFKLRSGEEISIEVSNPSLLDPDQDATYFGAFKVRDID
Test: competition ELISA: 150 pM his-hRANKL pre-mixed with antibody, free RANKL detected on hRANK-hFc plate

Control: Human anti-hRANKL mAb, SEQ ID NO: 2 and 4 of U.S. Pat. No. 7,364,736 (antibody), sequence (VH): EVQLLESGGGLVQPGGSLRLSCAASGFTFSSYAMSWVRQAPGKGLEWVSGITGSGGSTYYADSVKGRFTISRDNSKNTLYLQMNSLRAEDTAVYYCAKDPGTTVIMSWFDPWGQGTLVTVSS
Control: Human anti-hRANKL mAb, SEQ ID NO: 2 and 4 of U.S. Pat. No. 7,364,736 (antibody), sequence (VL): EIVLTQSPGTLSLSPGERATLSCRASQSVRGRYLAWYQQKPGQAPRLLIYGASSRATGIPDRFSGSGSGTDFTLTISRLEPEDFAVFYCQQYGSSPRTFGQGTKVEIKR

“Control: Human anti-hRANKL mAb, SEQ ID NO: 2 and 4 of U.S. Pat. No. 7,364,736 (antibody)” was tested, and the IC50 was 0.095 nM.
